Results on 5 molecules are retold here after patent publication US20180071366A1.

Assay [1] concerns the target recombinant human amylin 3 receptor (hAMYR3) (human), P30988. In words: cell-based or functional assay.
Assay [2] has as its target recombinant human calcitonin receptor (hCT-R) (human), P30988. In words: cell-based or functional assay.

Numbered stars: 1 amine (or outer) side, 2 acyl side, 3 side chain; on linkers, the order of the positions; unused ones are H or OH. Bridge positions count the residues as written; N and C are the ends. Square brackets hold non-standard residues; d marks the D form. * marks the point of attachment. C20 diacid = O=C(O)CCCCCCCCCCCCCCCCCCC(=O)*; γGlu = O=C(O)[C@H](CCC(=O)[*:2])N[*:1]; Hyp = O=C(O)[C@@H]1C[C@@H](O)CN1; NMeI = CC[C@H](C)[C@H](NC)C(=O)O; Aad = N[C@@H](CCCC(=O)O)C(=O)O; Sar = CNCC(=O)O

Chain of recombinant human calcitonin receptor (hCT-R) (human), P30988 (P30988 25-474): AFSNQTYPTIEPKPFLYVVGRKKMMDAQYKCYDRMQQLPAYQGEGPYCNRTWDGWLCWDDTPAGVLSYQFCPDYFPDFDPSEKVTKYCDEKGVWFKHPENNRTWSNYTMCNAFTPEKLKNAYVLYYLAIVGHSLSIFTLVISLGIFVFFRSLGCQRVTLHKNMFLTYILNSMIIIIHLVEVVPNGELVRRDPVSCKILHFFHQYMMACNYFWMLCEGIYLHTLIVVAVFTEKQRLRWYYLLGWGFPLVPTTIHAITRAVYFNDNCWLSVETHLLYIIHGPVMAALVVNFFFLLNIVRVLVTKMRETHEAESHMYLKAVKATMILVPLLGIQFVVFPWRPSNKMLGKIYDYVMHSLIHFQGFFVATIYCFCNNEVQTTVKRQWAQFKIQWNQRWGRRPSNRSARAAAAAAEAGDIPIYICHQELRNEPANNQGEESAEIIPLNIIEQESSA
Chain of recombinant human amylin 3 receptor (hAMYR3) (human), P30988 (P30988 25-474, chain 1 of 2): as the sequence (P30988 25-474) above
Chain of recombinant human amylin 3 receptor (hAMYR3) (human), P30988 (O60896 24-148, chain 2 of 2, further chain): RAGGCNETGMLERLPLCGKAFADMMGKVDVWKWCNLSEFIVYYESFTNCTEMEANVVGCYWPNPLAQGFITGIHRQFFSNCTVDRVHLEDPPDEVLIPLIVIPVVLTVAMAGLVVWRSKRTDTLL

B1: Compound 37 (peptide)
peptide: {C20 diacid-γGlu}-EDGTATKATERLA[Aad]FLQRSSF[Sar]A[NMeI]LSSTEVGSNT[Hyp]-NH2
modifications: lactam 2-7
SMILES: CC[C@H](C)[C@@H](C(=O)N[C@@H](CC(C)C)C(=O)N[C@@H](CO)C(=O)N[C@@H](CO)C(=O)N[C@H](C(=O)N[C@@H](CCC(=O)O)C(=O)N[C@H](C(=O)NCC(=O)N[C@@H](CO)C(=O)N[C@@H](CC(N)=O)C(=O)N[C@H](C(=O)N1C[C@H](O)C[C@H]1C(N)=O)[C@@H](C)O)C(C)C)[C@@H](C)O)N(C)C(=O)[C@H](C)NC(=O)CN(C)C(=O)[C@H](Cc1ccccc1)NC(=O)[C@H](CO)NC(=O)[C@H](CO)NC(=O)[C@H](CCCNC(=N)N)NC(=O)[C@H](CCC(N)=O)NC(=O)[C@H](CC(C)C)NC(=O)[C@H](Cc1ccccc1)NC(=O)[C@H](CCCC(=O)O)NC(=O)[C@H](C)NC(=O)[C@H](CC(C)C)NC(=O)[C@H](CCCNC(=N)N)NC(=O)[C@H](CCC(=O)O)NC(=O)[C@@H](NC(=O)[C@H](C)NC(=O)[C@@H]1CCCCNC(=O)C[C@H](NC(=O)[C@H](CCC(=O)O)NC(=O)CC[C@H](NC(=O)CCCCCCCCCCCCCCCCCCC(=O)O)C(=O)O)C(=O)NCC(=O)N[C@@H]([C@@H](C)O)C(=O)N[C@@H](C)C(=O)N[C@@H]([C@@H](C)O)C(=O)N1)[C@@H](C)O
Turning to B1, the hAMYR3 EC50 [nM] (cAMP formation, 1321N1 cells expressing hAMYR3) in assay [1] came out at 0.031 nM. Also, in assay [2], the hCT-R EC50 [nM] (cAMP formation, 1321N1 cells expressing hCT-R) came to 0.116 nM.

B2: Compound 39 (peptide)
peptide: {C20 diacid-γGlu}-KDGTATKATQRLA[Aad]FLQRSSF[Sar]A[NMeI]LSSTEVGSNT[Hyp]-NH2
modifications: lactam 2-7
SMILES: CC[C@H](C)[C@@H](C(=O)N[C@@H](CC(C)C)C(=O)N[C@@H](CO)C(=O)N[C@@H](CO)C(=O)N[C@H](C(=O)N[C@@H](CCC(=O)O)C(=O)N[C@H](C(=O)NCC(=O)N[C@@H](CO)C(=O)N[C@@H](CC(N)=O)C(=O)N[C@H](C(=O)N1C[C@H](O)C[C@H]1C(N)=O)[C@@H](C)O)C(C)C)[C@@H](C)O)N(C)C(=O)[C@H](C)NC(=O)CN(C)C(=O)[C@H](Cc1ccccc1)NC(=O)[C@H](CO)NC(=O)[C@H](CO)NC(=O)[C@H](CCCNC(=N)N)NC(=O)[C@H](CCC(N)=O)NC(=O)[C@H](CC(C)C)NC(=O)[C@H](Cc1ccccc1)NC(=O)[C@H](CCCC(=O)O)NC(=O)[C@H](C)NC(=O)[C@H](CC(C)C)NC(=O)[C@H](CCCNC(=N)N)NC(=O)[C@H](CCC(N)=O)NC(=O)[C@@H](NC(=O)[C@H](C)NC(=O)[C@@H]1CCCCNC(=O)C[C@H](NC(=O)[C@H](CCCCN)NC(=O)CC[C@H](NC(=O)CCCCCCCCCCCCCCCCCCC(=O)O)C(=O)O)C(=O)NCC(=O)N[C@@H]([C@@H](C)O)C(=O)N[C@@H](C)C(=O)N[C@@H]([C@@H](C)O)C(=O)N1)[C@@H](C)O
Regarding B2, in assay [1], the hAMYR3 EC50 [nM] (cAMP formation, 1321N1 cells expressing hAMYR3) is 0.024 nM. Also, the hCT-R EC50 [nM] (cAMP formation, 1321N1 cells expressing hCT-R) in assay [2] worked out at 0.094 nM.

B3: Compound 40 (peptide)
peptide: {C20 diacid-γGlu}-RDGTATKATQRLA[Aad]FLQRSSF[Sar]A[NMeI]LSSTEVGSNT[Hyp]-NH2
modifications: lactam 2-7
SMILES: CC[C@H](C)[C@@H](C(=O)N[C@@H](CC(C)C)C(=O)N[C@@H](CO)C(=O)N[C@@H](CO)C(=O)N[C@H](C(=O)N[C@@H](CCC(=O)O)C(=O)N[C@H](C(=O)NCC(=O)N[C@@H](CO)C(=O)N[C@@H](CC(N)=O)C(=O)N[C@H](C(=O)N1C[C@H](O)C[C@H]1C(N)=O)[C@@H](C)O)C(C)C)[C@@H](C)O)N(C)C(=O)[C@H](C)NC(=O)CN(C)C(=O)[C@H](Cc1ccccc1)NC(=O)[C@H](CO)NC(=O)[C@H](CO)NC(=O)[C@H](CCCNC(=N)N)NC(=O)[C@H](CCC(N)=O)NC(=O)[C@H](CC(C)C)NC(=O)[C@H](Cc1ccccc1)NC(=O)[C@H](CCCC(=O)O)NC(=O)[C@H](C)NC(=O)[C@H](CC(C)C)NC(=O)[C@H](CCCNC(=N)N)NC(=O)[C@H](CCC(N)=O)NC(=O)[C@@H](NC(=O)[C@H](C)NC(=O)[C@@H]1CCCCNC(=O)C[C@H](NC(=O)[C@H](CCCNC(=N)N)NC(=O)CC[C@H](NC(=O)CCCCCCCCCCCCCCCCCCC(=O)O)C(=O)O)C(=O)NCC(=O)N[C@@H]([C@@H](C)O)C(=O)N[C@@H](C)C(=O)N[C@@H]([C@@H](C)O)C(=O)N1)[C@@H](C)O
With B3, the hAMYR3 EC50 [nM] (cAMP formation, 1321N1 cells expressing hAMYR3) in assay [1] was found to be 0.008 nM. Moreover, in assay [2], the hCT-R EC50 [nM] (cAMP formation, 1321N1 cells expressing hCT-R) amounted to 0.028 nM.

B4: Compound 38 (peptide)
peptide: {C20 diacid-γGlu}-RDGTATKATERLA[Aad]FLQRTTF[Sar]A[NMeI]LSSTEVGSNT[Hyp]-NH2
modifications: lactam 2-7
SMILES: CC[C@H](C)[C@@H](C(=O)N[C@@H](CC(C)C)C(=O)N[C@@H](CO)C(=O)N[C@@H](CO)C(=O)N[C@H](C(=O)N[C@@H](CCC(=O)O)C(=O)N[C@H](C(=O)NCC(=O)N[C@@H](CO)C(=O)N[C@@H](CC(N)=O)C(=O)N[C@H](C(=O)N1C[C@H](O)C[C@H]1C(N)=O)[C@@H](C)O)C(C)C)[C@@H](C)O)N(C)C(=O)[C@H](C)NC(=O)CN(C)C(=O)[C@H](Cc1ccccc1)NC(=O)[C@@H](NC(=O)[C@@H](NC(=O)[C@H](CCCNC(=N)N)NC(=O)[C@H](CCC(N)=O)NC(=O)[C@H](CC(C)C)NC(=O)[C@H](Cc1ccccc1)NC(=O)[C@H](CCCC(=O)O)NC(=O)[C@H](C)NC(=O)[C@H](CC(C)C)NC(=O)[C@H](CCCNC(=N)N)NC(=O)[C@H](CCC(=O)O)NC(=O)[C@@H](NC(=O)[C@H](C)NC(=O)[C@@H]1CCCCNC(=O)C[C@H](NC(=O)[C@H](CCCNC(=N)N)NC(=O)CC[C@H](NC(=O)CCCCCCCCCCCCCCCCCCC(=O)O)C(=O)O)C(=O)NCC(=O)N[C@@H]([C@@H](C)O)C(=O)N[C@@H](C)C(=O)N[C@@H]([C@@H](C)O)C(=O)N1)[C@@H](C)O)[C@@H](C)O)[C@@H](C)O
With B4, the hAMYR3 EC50 [nM] (cAMP formation, 1321N1 cells expressing hAMYR3) in assay [1] worked out at 0.06 nM. Also, in assay [2], the hCT-R EC50 [nM] (cAMP formation, 1321N1 cells expressing hCT-R) worked out at 0.114 nM.

B5: Compound 41 (peptide)
peptide: {C20 diacid-γGlu}-RDGTATKATQRLADFLQRSSF[Sar]A[NMeI]LSSTEVGSNT[Hyp]-NH2
modifications: lactam 2-7
SMILES: CC[C@H](C)[C@@H](C(=O)N[C@@H](CC(C)C)C(=O)N[C@@H](CO)C(=O)N[C@@H](CO)C(=O)N[C@H](C(=O)N[C@@H](CCC(=O)O)C(=O)N[C@H](C(=O)NCC(=O)N[C@@H](CO)C(=O)N[C@@H](CC(N)=O)C(=O)N[C@H](C(=O)N1C[C@H](O)C[C@H]1C(N)=O)[C@@H](C)O)C(C)C)[C@@H](C)O)N(C)C(=O)[C@H](C)NC(=O)CN(C)C(=O)[C@H](Cc1ccccc1)NC(=O)[C@H](CO)NC(=O)[C@H](CO)NC(=O)[C@H](CCCNC(=N)N)NC(=O)[C@H](CCC(N)=O)NC(=O)[C@H](CC(C)C)NC(=O)[C@H](Cc1ccccc1)NC(=O)[C@H](CC(=O)O)NC(=O)[C@H](C)NC(=O)[C@H](CC(C)C)NC(=O)[C@H](CCCNC(=N)N)NC(=O)[C@H](CCC(N)=O)NC(=O)[C@@H](NC(=O)[C@H](C)NC(=O)[C@@H]1CCCCNC(=O)C[C@H](NC(=O)[C@H](CCCNC(=N)N)NC(=O)CC[C@H](NC(=O)CCCCCCCCCCCCCCCCCCC(=O)O)C(=O)O)C(=O)NCC(=O)N[C@@H]([C@@H](C)O)C(=O)N[C@@H](C)C(=O)N[C@@H]([C@@H](C)O)C(=O)N1)[C@@H](C)O
As for B5, the hAMYR3 EC50 [nM] (cAMP formation, 1321N1 cells expressing hAMYR3) in assay [1] is 0.024 nM. In addition, the hCT-R EC50 [nM] (cAMP formation, 1321N1 cells expressing hCT-R) in assay [2] stood at 0.095 nM.
